# Assay results: publication doi:10.1101/2024.12.25.630315 (bioRxiv, 2024)
# Experiments:
# Nectin-4 [1] = molecular target: T1, Nectin-4 (Homo sapiens, UniProt Q96NY8); test: [^68Ga]AJ647 binding to SCaBER cells with and without EV; details: SCaBER cells (Nectin-4 positive); EV 60 nM for 15 min; P<0.0001
# T1 construct: host or cells: HT1376, SCaBER, T24, RT112, UC9, UC14 urothelial carcinoma cells; HT1376 xenografts in NSG mice
# T1 sequence (Q96NY8 32-510): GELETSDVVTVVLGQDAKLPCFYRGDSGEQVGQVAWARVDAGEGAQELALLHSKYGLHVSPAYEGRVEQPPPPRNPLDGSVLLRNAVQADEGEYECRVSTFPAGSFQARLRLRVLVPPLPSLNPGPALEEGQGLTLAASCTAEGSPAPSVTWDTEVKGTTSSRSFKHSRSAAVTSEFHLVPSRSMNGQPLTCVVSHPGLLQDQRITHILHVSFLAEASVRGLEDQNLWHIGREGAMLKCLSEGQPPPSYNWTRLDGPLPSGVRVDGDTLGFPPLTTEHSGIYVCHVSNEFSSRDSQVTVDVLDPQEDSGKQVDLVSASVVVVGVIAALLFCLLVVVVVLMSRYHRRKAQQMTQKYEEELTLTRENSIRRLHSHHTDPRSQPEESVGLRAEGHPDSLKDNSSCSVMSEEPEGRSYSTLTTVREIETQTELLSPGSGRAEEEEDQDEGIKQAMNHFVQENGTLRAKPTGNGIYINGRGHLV
# Nectin-4 [2] = molecular target: T1, Nectin-4; test: In vivo Nectin-4 engagement by EV, SCaBER tumors (ex vivo biodistribution of [^68Ga]AJ647); design: species or system mouse; details: NSG mice, single i.v. dose of EV (15 mg/kg in text, 20 mpk in legend/methods) 24 hours before tracer, ex vivo biodistribution 60 min, n=5, P < 0.001
# Description: (§1) To validate imaging studies, ex vivo biodistribution studies were conducted in mice with tumors of size 100–200 mm^3. Mice received ~50 μCi (1.85 MBq) of [^68Ga]AJ647 in […] of 5% ethanol in saline intravenously and mice were sacrificed at 5–180 min after [^68Ga]AJ647 injection for pharmacokinetic evaluation (n=4 per timepoint). In all other studies, 60 min time-point was chosen. Selected tissues (Blood, Skin, Muscle, Bone, Salivary glands, Tumor, Lungs, Heart, Liver, Pancreas, Spleen, Kidneys, Bladder, Testicles) were collected, weighed, counted, and their %IA/g values calculated as described previously (PMID: 37793856). For EV pharmacodynamics studies, fewer organs were harvested to accommodate more number of mice.
# (§2) Male NSG mice were implanted subcutaneously with HT1376 and SCaBER cells (4 million each) on the right and left rostral end, respectively. On day 25 after cell inoculation (average tumor volume=200±35 mm^3), mice were randomized and treated with a single dose of either saline or 20 mpk EV ADC injected intravenously (volume not exceeding 300 μL) or with 200 μL saline (n=7/group). 24 hours following the EV dose, [^68Ga]AJ647 PET scans (n=2/group) were acquired and ex vivo biodistribution (n=5/group) was performed using the protocols mentioned above.
# Nectin-4 [3] = molecular target: T1, Nectin-4; test: In vivo Nectin-4 engagement by EV, HT1376 tumors (ex vivo biodistribution of [^68Ga]AJ647); design: species or system mouse; details: NSG mice, single i.v. dose of EV (15 mg/kg in text, 20 mpk in legend/methods) 24 hours before tracer, ex vivo biodistribution 60 min, n=5, P < 0.0001
# Description: as §1, §2
# Nectin-4 [4] = molecular target: T1, Nectin-4; test: EV dose-time Nectin-4 pharmacodynamics by [^68Ga]AJ647 PET, HT1376 tumors; type: in vivo, mouse
# Description: Mice with tumor volume of ~100–150 mm^3 were injected with ~[…] (7.4 MBq) of [^68Ga]AJ647 in […] of 5% ethanol in saline intravenously and anesthetized under 2.5% isoflurane. PET-CT images were acquired at 60 minutes after radiotracer injection at 5 min/bed in an ARGUS small-animal PET/CT scanner (Sedecal, Madrid, Spain) as described (n=3 unless otherwise noted). PET-MR images were acquired on a simultaneous 7T Bruker PET-MR scanner. Dynamic imaging was conducted to evaluate pharmacokinetics of [^68Ga]AJ647. [^68Ga]AJ647 was injected (with help of catheter) after mice was anesthetized under 2.5% isoflurane on the equipment bed. All PET data were reconstructed using the two-dimensional ordered subsets-expectation maximization algorithm (2D-OSEM) and corrected for radioactive decay and dead time. The SUV values were calculated by finding percent of injected activity (%IA) based on a calibration factor obtained from a known radioactive quantity, then normalizing by mice weight. Amide software was used to derive SUV values by drawing region of interest to closely fit tumors. For change in accessible Nectin-4 levels following EV treatment, ΔSUV was calculated by subtracting baseline (pre-treatment) uptake from post-therapy uptake of [^68Ga]AJ647. Target engagement was quantified by normalizing this change by initial SUV in same subject controls. Image fusion, visualization, and 3D rendering were accomplished using Amira 2020.3.1® (FEI, Hillsboro, OR). The dose-time pharmacodynamics of Nectin-4 following EV treatment was studied at doses 6, 9 and 15 mpk. Experiment involving PET imaging was performed first. Male NSG mice were inoculated with 4 million HT1376 cells at day 0. On day 23 (average tumor volume=150±30 mm^3), mice were randomized to receive either saline, or a single dose of 6, 9 or 15 mpk EV intravenously (n=3 for each dose and n=2 for saline). Mice (n=2) from each dose group and saline were imaged on day 1, 3 and 6 following EV treatment. Once PET imaging results were analyzed, ex vivo distribution experiment was performed with n=16–18 for each dose and n=10 for saline. Treated mice (n=8–9 per dose per time-point) along with saline controls (n=5 per time-point) were sacrificed on day 1 and day 6. Biodistribution studies were performed at 60-minute after [68Ga]AJ647 injection as described above.
substance,measurement,setting,value
enfortumab vedotin [EV],effect of EV on [^68Ga]AJ647 binding,Nectin-4 [1],significantly reduced
same,reduction in [^68Ga]AJ647 uptake in EV-treated tumors compared to controls,Nectin-4 [2],72%
same,reduction in [^68Ga]AJ647 uptake in EV-treated tumors compared to controls,Nectin-4 [3],84%
same,Nectin-4 engagement by EV ([^68Ga]AJ647 PET tumor uptake),"Nectin-4 [4]; day 1, all EV doses (6, 9, 15 mg/kg single i.v.)",full occupancy
same,Nectin-4 engagement by EV ([^68Ga]AJ647 PET tumor uptake),"Nectin-4 [4]; day 3, 6 mg/kg",increase in [^68Ga]AJ647 uptake
same,Nectin-4 engagement by EV ([^68Ga]AJ647 PET tumor uptake),"Nectin-4 [4]; day 3, 9 and 15 mg/kg",sustained target engagement
same,Nectin-4 engagement by EV ([^68Ga]AJ647 PET tumor uptake),"Nectin-4 [4]; day 6, 6 mg/kg",significant increase in [^68Ga]AJ647 uptake
same,Nectin-4 engagement by EV ([^68Ga]AJ647 PET tumor uptake),"Nectin-4 [4]; day 6, 9 mg/kg",partial engagement
same,Nectin-4 engagement by EV ([^68Ga]AJ647 PET tumor uptake),"Nectin-4 [4]; day 6, 15 mg/kg",persistent high-level engagement
